Reference: a protein production outcome set (Wang et al. 2014)

Assay: label from the status in PepcDB records

Which protein production does the source give for “MKMISTIQKKETVMVAPIPAKRGRKPAVATAPATGQVQSLTRGLKLLEWIAESNGSVALTELAQQAGLPNSTTHRLLTTMQQQGFVRQVGELGHWAIGAHAFMVGSSFLQSRNLLAIVHPILRNLMEESGETVNMAVLDQSDHEAIIIDQVQCTHLMRMSAPIGGKLPMHASGAGKAFLAQLSEEQVTKLLHRKGLHAYTHATLVSPVHLKEDLAQTRKRGYSFDDEEHALGLRCLAACIFDEHREPFAAISISGPISRITDDRVTEFGAMVIKAAKEVTLAYGGMR” here?
Its protein production is “not failed”.

Which protein production does the source give for “MAYFHGTGSEPAWKQMELVALIGLAAVLLRGPIAAAWKTVASRSNERKRHQRDPAARVGKGAGSKINLAALQYANLKLALREHRCRRLPRLLVTGNDAAVSRLLPELEEAGWFDTCDALLLSSKTSNEGQPDTAWLKRLYKLRRRRPVDAVIVVTDGAADLPMPRRGTHPYSIRLARIIEILRYAAPVYVVDVAGMDPTVSSDAPIIVCALPNQADASAIEEALLLLRNQLARRGLDQLTQEDRYPYQARLSQRFDTRSKALAKWTAGLIAGQIAVRGIAFAPYPSGTSTKPEMPGSADLPHWRYLSEAARRQPGKRIGWHPMTVCVGFALVAVGLWFAGMLASGWFNSRDVYAAQQAVTEIGSARNPATRLHALLALQQQIERYEYRTQQHAPLLTRFGLNRDADVLAALWQPYVKASRELLVTPVQQNLEATLVDLGQLQTTTLDDKTSQWALSGRDDLKAYLMLAYPERTEADFLAGRLPHDWSTEARITPGEKQALAERLFKFYAQHLKANPDWKIEPRPELVAGARQTLLAVIGARSAQETLYRGILNGAGNKYPDLTLPSLTAGTDARGLLRSAAAVPGVFTRQAYEGYVADAIDAAATRRDVAADWVLTGSQVAAVTATKSADELRAALTEQYFAEYAAHWQDFMNSLQWESAATLPAAIDQLKLLADARQSPAIALMKSLAYQGGAGVQKTSLSDTLVNKAKDILGKKDDAPNSAKAAPAGPLDAAFGPVLRLAGQPGQAGQGGNNDLSLQRYLDRITALRLRLQQVSIGADADDQARQMAQAMFQGKSSDLADTQAYAQLVAASLGAEWAGMGETLFVRPVAQATQAIVLPAQASLNDVWQRFIMAEWNRIFAGRYPFANTTNDASLPELAQFLRPQGGTIQTFLATQLAGVLELQGDQWMPAAGARGITFDPEFLKTINILQRIGAHMLVQGDPQYRFELKPIATPGLTDTKLTIDGQKLHYYNQRETWNRMTWPASNLQDPGTLLQWQTEKAGTNKNYEYGGRFALLRMIGHGHIVPIDSATVQITWPAVPDTRGPLEESTDAQSGKAPYEIRFLMRSEAGQGVLELLPLRGLKLPQRVFLVGKGGAAVDVPSPAARNAKRGGV” here?
The protein production was “failed”.

Which protein production does the source give for “MGDRIAVQAEPTPAKLRGAASGDLVMRKVCMQQWRPTAPRGEYVSTEWSAGYVTDVNYTFGYYGELNPLRCRLPLLTVGRHAPKIENACELGFGQGLSVSIHAAAQPGINWYGTDFNPSQAAFAAEMVRLSGAEAKLYDEAFAEFCNRKDLPDFDFIGLHGIWTWISDQNRHVLVDFIRRKLRPGGVLYISYNTLPGWSSSAPIRHLMKRHADVMGAPGQGVIGQTDAALNFIDQFLALDPLYAKVNPGAVERLKQVKAQDRKYLAHEYMNRDWHPMYFADVENWLGDAKVGFACSAHVLDNLYDLNMTPQQTEFMRDVSDVSLRETIRDFCMNQQFRRDYWVRGVRALIGHEQVAAMREERVVMTVAQADLPTKVRGVIGEATLNDDVYQPLFEILLDHKPHSVLELETHLASKSLHFGQLSSALTILLGLGVITTAAAAQDVSKAKARTLALNKTIARRSLSVGDIAYFASPITGGGITASRFAQLFWLSRQNGGKTAEDWASFAYQVLQGQGQAIIKDGATLQGEDNLTELRAQATHWGAHVLPIWNALGV” here?
Its protein production is “failed”.

With “MRPDLSRVPGVLGEIARKRASEVAPYPLPEPPSVPSFKEALLRPGLSVIAEVKRQSPSEGLIREVDPVEAALAYARGGARAVSVLTEPHRFGGSLLDLKRVREAVDLPLLRKDFVVDPFMLEEARAFGASAALLIVALLGELTGAYLEEARRLGLEALVEVHTERELEIALEAGAEVLGINNRDLATLHINLETAPRLGRLARKRGFGGVLVAESGYSRKEELKALEGLFDAVLIGTSLMRAPDLEAALRELVG” as the sequence, how does the protein production read?
Its protein production is “not failed”.

With “MKNTPIERNVIDETINEFQIVDFSKATIREVKAIASKAEAVSGVEFIKMEMGVPGLPASAVGVKAEIEALQNGIASLYPDINGLPELKKEASDFIKAFINVDLSPEGCVPVTGSMQGTFASFLTCSQCDEKKDTILFIDPGFPVQKQQLVVMGQKYETFDVYDYRGDKLKEKLESYLRKGNISAIIYSNPNNPSWICLKDEELRIIGELATQYDVIVLEDLAYFAMDFRQDLSTPYQAPFQPSVAHYTDNYVLLISGSKAFSYAGQRIGVSCISDKLYHRSYPGLTKRYGGGTFGTVFIHRVLYALSSGTSHSAQYAMAAMLKAANEGQYNFLSEVKVYGDRAQKLKEIFLRHGFYLVYDNDLGDPIADGFYFTIGYPGMTSGELAKELMYYGVSAISLVTTGSHQEGLRACTSFIKDHQYAQLDERMKLFAEHHPIA” as the sequence, how does the protein production read?
Its protein production is “not failed”.

With “LSRVGSAEWNLLTDEATWSGELYQILGRDPAAPPLTLDELPSFVHDEDRPRLTAMVTDCLIDAKPIDGEFRIVRPDGGVRTVHMMGEPVLDAHGSTASMWAVLRDVSE” as the sequence, how does the protein production read?
Its protein production is “not failed”.

With “MLEIPEDRCERHRLFKAIDDAFKAGDFDGLGKALGGSPGWFDERMPFELGLGHPLEYAIYWSPVGFISTLLDAGSDPNYQDHGGFPAIIAALSTDRADRLEVVRVLIEAGADPNMRGVNDWTPLHYSVGIRSAEAIHLLLAAGADPTLATRIDDYTTAFEEADKAGFEAGASLLRDAIARRGFNR” as the sequence, how does the protein production read?
The protein production was “failed”.

Which protein production does the source give for “MNLFAPPALFRHFHRMAWLAALFTASTILFGSFVRLSDAGMSCPDWPTCYGRVTWPQTSDEANTHVASKIRPLESHKAWREQVHRFLAGALGVEVLVLSLLAVRRRRMGIAQVVSAAVLVALSIPLYMSGWHATAFGMAITGEAILLLAALRWSNIDLARAAVLTLAVVIFQALLGMWTVTLLLKPIVVMGHLLGGMLMFSLLVWMAWRATHLPITLADASRLKWLLRLGVAVLGLQIALGGWVSANYAALACGGGSWSADNFPRCVSQWWPPHDFREGFTLWRGIGVDYEGGVLDGAARIAIQMAHRLWAIATALYLWWLAWRLSRSPGMRVWAGALALLVAVQVTLGMLNVKLALPLEVSLMHNGGAVALLFVLVSLLARLRAPE” here?
Its protein production is “failed”.

With “MSLGRTDAIALAYPSRPRVLNNSTFLEMISWIGIELGKRGLDLLLIPDEPGEKYQSLIHLVETRRVDALIVAHTQPEDFRLQYLQKQNFPFLALGRSHLPKPYAWFDFDNHAGASLAVKRLLELGHQRIAFVSTDARISYVDQRLQGYVQTMSEAGLMPLAGYLQKADPTRPGGYLAASRLLALEVPPTAIITDCNMLGDGVASALDKAGLLGGEGISLIAYDGLPDDSLLDIAVTPIVQNTRTSVGKQIASMICDLLGGKDPKELQVLWQPEIGEGETDGVNRRGEGHHHHHH” as the sequence, how does the protein production read?
The protein production was “not failed”.

With “MERPLESYKKEAAHAAIAYVQDGMVVGLGTGSTARYAVLELARRLREGELKGVVGVPTSRATEELAKREGIPLVDLPPEGVDLAIDGADEIAPGLALIKGMGGALLREKIVERVAKEFIVIADHTKKVPVLGRGPVPVEIVPFGYRATLKAIADLGGEPELRMDGDEFYFTDGGHLIADCRFGPIGDPLGLHRALLEIPGVVETGLFVGMATRALVAGPFGVEELLP” as the sequence, how does the protein production read?
Its protein production is “not failed”.

For “MIFVPIIGWLALFGYGVRLVNEFIEGRYEGPIKLDFMEDLKFGFMVFLKSLPFYIIYIIILFAAMYVSEGLGNIISLLLGFFVVPMLAVNFFRKQTVESFFEFSVLNVVRDNLGEYIITVLKQYALVIIFMVLSIVLVGIPGMLFTNSIFVANMYGRLVERKAEASL”, which protein production is on record?
Its protein production is “failed”.

Which protein production does the source give for “MKAEFEEASGLTAGNPVRMKGVNVGSVESIRLNQETQTVRARLRIEEGIRIPEGSHAKVAGFSGIGGVRISILPGPRENPPLPPDATLSAPPEGSVFDRLTDQAPALANKADSVLTSTNTTMSALSTQLQDPDSDLRQALTSAKNITGDLESVTEAEKETLRALLQNLQSVSSDLDTFMGENGDSLDVAVRRLNESLDRLNRGLASLEQTSATLDTVATKLNEGDGTAGRLLNDPSLYLRLDSAAARTNTLLQDFQRDPGRYLNDMTLVKVF” here?
Its protein production is “failed”.
